{"source": "patent US6890900B2", "about": "“Methods for treating or preventing diseases of the oral cavity” (Campina B.V., priority 2001, dated 2005)", "molecules": {"B1": {"name": "LF: Bovine lactoferrin, iron-binding glycoprotein purified from milk, provided by DMV International (protein, UniProt P24627 20-708, looked up)", "Lactotransferrin": "APRKNVRWCTISQPEWFKCRRWQWRMKKLGAPSITCVRRAFALECIRAIAEKKADAVTLDGGMVFEAGRDPYKLRPVAAEIYGTKESPQTHYYAVAVVKKGSNFQLDQLQGRKSCHTGLGRSAGWIIPMGILRPYLSWTESLEPLQGAVAKFFSASCVPCIDRQAYPNLCQLCKGEGENQCACSSREPYFGYSGAFKCLQDGAGDVAFVKETTVFENLPEKADRDQYELLCLNNSRAPVDAFKECHLAQVPSHAVVARSVDGKEDLIWKLLSKAQEKFGKNKSRSFQLFGSPPGQRDLLFKDSALGFLRIPSKVDSALYLGSRYLTTLKNLRETAEEVKARYTRVVWCAVGPEEQKKCQQWSQQSGQNVTCATASTTDDCIVLVLKGEADALNLDGGYIYTAGKCGLVPVLAENRKSSKHSSLDCVLRPTEGYLAVAVVKKANEGLTWNSLKDKKSCHTAVDRTAGWNIPMGLIVNQTGSCAFDEFFSQSCAPGADPKSRLCALCAGDDQGLDKCVPNSKEKYYGYTGAFRCLAEDVGDVAFVKNDTVWENTNGESTADWAKNLNREDFRLLCLDGTRKPVTEAQSCHLAVAPNHAVVSRSDRAAHVKQVLLHQQALFGKNGKNCPDKFCLFKSETKNLLFNDNTECLAKLGGRPTYEEYLGTEYVTAIANLKKCSTSPLLEACAFLTR"}}, "tested_on": "Streptococcus pyogenes ATCC #19615", "experiment": "LF/GMP assay, viable plate count (pour plate) of broth culture", "assay_type": "cell-based", "parameters": "key to MIBC: NCF: No Effective Concentration Found", "details": "35° C.; for Colony Counts: viable plate count", "procedure": "Bacterial strains used in this study were Pseudomonas aeruginosa ATCC #27853, Streptococcus mutans ATCC #33535, Streptococcus pyogenes ATCC #19615, and Actinobacillus haemophilus ATCC #43717 and an oral swab from a healthy adult. Bacteria were grown on blood/BHT media (Brain Heart Infusion Agar with protease peptone, sodium chloride, glucose, di-sodium phosphate, and agar, Oxoid, Hampshire England, Sheep's Blood) in the presence of 5% CO2 at 35° C. […] The 0.5 McFarland value is approximately equivalent to 1.0×10^8 organisms. One ml of the appropriate bacterial dilution was taken using a sterile pipette and introduced into 8 ml of sterilized BHI broth. […] By pipette, 9 ml of broth was placed into medium test tubes as means of a control and 8 ml test tubes were prepared for the concentration tests). […] This solution was filtered through a 0.45 μm filter. […] Example for calculating 2,500 ppm dilution (1,000 ppm=0.1%): [formula] [formula] [formula] To study the kinetics of LF/GMP binding, each strain of bacteria was taken separately with a sterile pipette and placed into an 8 ml BHI broth test tube, vortexed, and incubated in the presence of 1 ml of LF or GMP for 18-24 hours at 35° C. with 5% CO2. In the combination procedure, 0.5 ml of both LF and […] were taken as 1 ml inoculations. This technique was used to determine the density of living (viable) cells in inoculated broth cultures. It involves plating a bacterial sample and counting the resulting colonies after incubation. A serial dilution of the original broth was taken prior to plating. The serial dilution is necessary to reduce the density of organisms in order to create countable plates. Only plates containing between 25 and 250 colonies are considered countable. Cell densities are traditionally recorded as CFU (colony forming unit)/ml. […] Formula: [formula] The assays required the use of a pour plate technique. The pour plate technique adds a step to the conventional serial dilution. The 1 ml of dilution is added to a warm emulsion of dilute nutrient (BHI) agar to produce an agar overlay in the petri plates. After incubation, the bacterial growth covers the entire plate but individual cellular movement has been restricted by the soft agar overlay. Each colony formed is assumed to have originated from a single CFU. The plates were gently mixed, inverted, and incubated for 18-24 hour at 35° C. Using a control (one broth tube inoculated with a bacterial strain, but no LF), the effectiveness of LF was examined. Each test tube containing a specified amount of LF (50, 100, 250, 500, 1,000 ppm and 3000 ppm) was diluted and plates were poured. After incubating the plates for 24 hours at 35° C. with 5% CO2 (the normal conditions of an oral cavity), the bacterial recovery count was taken and the results were compared to the control. A. haemophilus, S. mutans, S. pyrogenes and an oral culture were tested at 35° C. Pseudomonas aeruginosa was tested at both room temperature and 35° C. with 5% CO2. This was done because P. aeruginosa is not strictly an oral pathogen. It is commonly found in the environment in various conditions. It can be found in the environment and oral intake can cause inflammation in the oral cavity. Most normal oral bacteria are only found in the mouth and are not taken in from outside factors. Therefore, P. aeruginosa is a threat in both temperature settings. Table 1 depicts the minimum inhibitor concentration (MBEC) for each of the bacterial strains at 35° C. S. pyogenes and the oral culture were not effected by LF at any tested concentration. […] (see Table 2).", "data": [{"molecule": "B1", "values": [{"measurement": "Colony Counts", "setting": "50 ppm, 24 h", "result": "5.8 × 10^7"}, {"measurement": "Colony Counts", "setting": "100 ppm, 24 h", "result": "1.5 × 10^7"}, {"measurement": "Colony Counts", "setting": "500 ppm, 24 h", "result": "7.8 × 10^7"}, {"measurement": "Colony Counts", "setting": "3,000 ppm, 24 h", "result": "1.7 × 10^8"}, {"measurement": "Total Log Reduction", "setting": "Lactoferrin/GMP 250/0 ppm (LF alone)", "result": 0, "unit": "log"}, {"measurement": "Total Log Reduction", "setting": "Lactoferrin/GMP 3,000/0 ppm (LF alone)", "result": 0, "unit": "log"}, {"measurement": "# Log Reductions", "setting": "at the MIBC, vs control", "result": 0, "unit": "log"}, {"measurement": "effect on growth (in words)", "setting": "single agent, any tested concentration", "result": "not effected"}, {"measurement": "MIBC", "setting": "single agent, 24 h, 5% CO2", "result": "NCF"}]}]}
